According to patent US20140030274A1:

Assays:
[1] = biological target: Aβ(M1-40) (human); experiment: cell-based or functional assay
[2] = biological target: Aβ(M1-42) (human); experiment: cell-based or functional assay
Aβ(M1-42) (human), sequence (peptide, as listed by the source): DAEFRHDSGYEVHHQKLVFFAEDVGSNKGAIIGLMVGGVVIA

Aβ(M1-40) (human), sequence (peptide, as listed by the source): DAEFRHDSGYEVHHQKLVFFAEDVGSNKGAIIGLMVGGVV

molar equivalents needed for the same inhibition of Aβ40 aggregation (ThT assay) (molar equivalents) [1]: 0.01 | effect on Aβ42 aggregation (ThT assay) (molar equivalents) [2]: 0.1
Substance: human anti-thrombin (from UniProt P01008 33-464)
